{"source": "paper doi:10.1101/2023.04.21.537812", "about": "(bioRxiv, 2023)", "target": "the molecule itself", "assay": "SEC", "data": [{"protein": "uncleaved Ycf1p-3xFLAG (natural protein, S. cerevisiae, UniProt P39109 1-1515, looked up) MAGNLVSWACKLCRSPEGFGPISFYGDFTQCFIDGVILNLSAIFMITFGIRDLVNLCKKKHSGIKYRRNWIIVSRMALVLLEIAFVSLASLNISKEEAENFTIVSQYASTMLSLFVALALHWIEYDRSVVANTVLLFYWLFETFGNFAKLINILIRHTYEGIWYSGQTGFILTLFQVITCASILLLEALPKKPLMPHQHIHQTLTRRKPNPYDSANIFSRITFSWMSGLMKTGYEKYLVEADLYKLPRNFSSEELSQKLEKNWENELKQKSNPSLSWAICRTFGSKMLLAAFFKAIHDVLAFTQPQLLRILIKFVTDYNSERQDDHSSLQGFENNHPQKLPIVRGFLIAFAMFLVGFTQTSVLHQYFLNVFNTGMYIKSALTALIYQKSLVLSNEASGLSSTGDIVNLMSVDVQKLQDLTQWLNLIWSGPFQIIICLYSLYKLLGNSMWVGVIILVIMMPLNSFLMRIQKKLQKSQMKYKDERTRVISEILNNIKSLKLYAWEKPYREKLEEVRNNKELKNLTKLGCYMAVTSFQFNIVPFLVSCCTFAVFVYTEDRALTTDLVFPALTLFNLLSFPLMIIPMVLNSFIEASVSIGRLFTFFTNEELQPDSVQRLPKVKNIGDVAINIGDDATFLWQRKPEYKVALKNINFQAKKGNLTCIVGKVGSGKTALLSCMLGDLFRVKGFATVHGSVAYVSQVPWIMNGTVKENILFGHRYDAEFYEKTIKACALTIDLAILMDGDKTLVGEKGISLSGGQKARLSLARAVYARADTYLLDDPLAAVDEHVARHLIEHVLGPNGLLHTKTKVLATNKVSALSIADSIALLDNGEITQQGTYDEITKDADSPLWKLLNNYGKKNNGKSNEFGDSSESSVRESSIPVEGELEQLQKLNDLDFGNSDAISLRRASDATLGSIDFGDDENIAKREHREQGKVKWNIYLEYAKACNPKSVCVFILFIVISMFLSVMGNVWLKHWSEVNSRYGSNPNAARYLAIYFALGIGSALATLIQTIVLWVFCTIHASKYLHNLMTNSVLRAPMTFFETTPIGRILNRFSNDIYKVDALLGRTFSQFFVNAVKVTFTITVICATTWQFIFIIIPLSVFYIYYQQYYLRTSRELRRLDSITRSPIYSHFQETLGGLATVRGYSQQKRFSHINQCRIDNNMSAFYPSINANRWLAYRLELIGSIIILGAATLSVFRLKQGTLTAGMVGLSLSYALQITQTLNWIVRMTVEVETNIVSVERIKEYADLKSEAPLIVEGHRPPKEWPSQGDIKFNNYSTRYRPELDLVLKHINIHIKPNEKVGIVGRTGAGKSSLTLALFRMIEASEGNIVIDNIAINEIGLYDLRHKLSIIPQDSQVFEGTVRENIDPINQYTDEAIWRALELSHLKEHVLSMSNDGLDAQLTEGGGNLSVGQRQLLCLARAMLVPSKILVLDEATAAVDVETDKVVQETIRTAFKDRTILTIAHRLNTIMDSDRIIVLDNGKVAEFDSPGQLLSDNKSLFYSLCMEAGLVNEN", "values": [{"measurement": "binding result", "value": "binds"}]}]}
